# pKd: −log10 of the molar value.
# Legend:
# mCD16-2 (mouse) = assay: BLI; Fortebio Octet, 30°C; FcγRs loaded on NTA sensors at 5 μg/mL (2.5 nm); antibodies in solution, six 2-fold dilutions; 1× PBS, 0.1% BSA, 0.02% Tween 20; steady-state equilibrium analysis
# mCD32b (mouse) = mCD32b (mouse) (UniProt P08101); assay: as above
# [1] = target: hCD16a (FcγR IIIa) (human) (UniProt P08637); assay: BLI
# [2] = target: hCD32b (FcγR IIb) (human) (UniProt P31994); assay: BLI
# [3] = target: hCD16b (FcγR IIIb) (human) (UniProt O75015); assay: BLI
# Sequence of UniProt O75015 (O75015 17-200): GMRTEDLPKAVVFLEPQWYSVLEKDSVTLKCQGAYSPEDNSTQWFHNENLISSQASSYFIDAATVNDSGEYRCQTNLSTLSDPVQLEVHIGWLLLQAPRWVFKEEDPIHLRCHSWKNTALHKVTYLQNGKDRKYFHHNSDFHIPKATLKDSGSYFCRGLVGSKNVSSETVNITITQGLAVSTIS
# Sequence of UniProt P08101 (P08101 30-330): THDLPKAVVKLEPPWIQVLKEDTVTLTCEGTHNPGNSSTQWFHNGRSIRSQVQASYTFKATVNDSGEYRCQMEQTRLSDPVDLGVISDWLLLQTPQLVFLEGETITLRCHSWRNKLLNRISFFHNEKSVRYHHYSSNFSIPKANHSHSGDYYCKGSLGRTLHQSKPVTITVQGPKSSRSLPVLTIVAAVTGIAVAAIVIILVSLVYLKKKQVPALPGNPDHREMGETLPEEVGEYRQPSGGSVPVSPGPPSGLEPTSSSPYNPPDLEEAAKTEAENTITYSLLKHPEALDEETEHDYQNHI
# Sequence of UniProt P08637 (P08637 17-208): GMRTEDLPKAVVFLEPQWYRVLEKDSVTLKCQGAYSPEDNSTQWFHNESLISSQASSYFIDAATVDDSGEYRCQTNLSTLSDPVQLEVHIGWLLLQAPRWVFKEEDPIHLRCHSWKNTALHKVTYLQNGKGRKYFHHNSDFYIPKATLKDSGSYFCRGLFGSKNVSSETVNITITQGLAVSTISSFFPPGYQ
# Sequence of UniProt P31994 (P31994 43-310): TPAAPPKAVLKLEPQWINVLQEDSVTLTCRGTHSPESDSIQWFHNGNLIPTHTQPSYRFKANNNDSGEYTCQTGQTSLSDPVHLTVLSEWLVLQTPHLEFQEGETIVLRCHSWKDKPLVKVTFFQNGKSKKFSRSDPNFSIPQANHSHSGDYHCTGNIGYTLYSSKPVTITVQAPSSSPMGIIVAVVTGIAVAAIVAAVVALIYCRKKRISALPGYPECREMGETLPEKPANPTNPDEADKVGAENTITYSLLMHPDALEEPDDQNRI
pKd (mCD16-2 (mouse)),pKd (mCD32b (mouse)),pKd [1],pKd [2],pKd [3],Substance
5.96,5.55,–,–,–,Wild-type huE6F6 (huE6F6-wt) (antibody)
–,–,6.09,5.96,5.59,Wild-type huE6F6 (huE6F6-wt) (from UniProt P01857)

# Source: PMC10777313
